Test results reported in PMC4298360 (2015).

Columns and labels:
[1] = target: T1, IgG-(IL-2)2 (bivalent fusion of two wild-type human IL-2 to a non-targeted, effector-silent human IgG1) (human, UniProt P60568 21-153); experiment: SPR
[2] = target: T2, IgG-IL-2 (monovalent fusion of wild-type human IL-2 to a non-targeted, effector-silent human IgG1) (human, UniProt P60568 21-153); experiment: SPR
[3] = target: T1, IgG-(IL-2)2 (bivalent fusion of two …); experiment: SPR; steady state
[4] = target: T2, IgG-IL-2 (monovalent fusion of …); experiment: SPR; steady state

Row | koff [1] [s⁻¹] | koff [2] [s⁻¹] | Kd [3] [nM] | Kd [4] [nM] | Binder
1 | 8.1e-06 | 3.8e-05 |  |  | human IL-2Rβγ heterodimeric Fc fusion (knobs-into-holes), biotinylated (Fc fusion) chain 1: AVNGTSQFTCFYNSRANISCVWSQDGALQDTSCQVHAWPDRRRWNQTCELLPVSQASWACNLILGAPDSQKLTTVDIVTLRVLCREGVRWRVMAIQDFKPFENLRLMAPISLQVVHVETHRCNISWEISQASHYFERHLEFEARTLSPGHTWEEAPLLTLKQKQEWICLETLTPDTQYEFQVRVKPLQGEFTTWSPWSQPLAFRTKPAALGKDT chain 2: LNTTILTPNGNEDTTADFFLTTMPTDSLSVSTLPLPEVQCFVFNVEYMNCTWNSSSEPQPTNLTLHYWYKNSDNDKVQKCSHYLFSEEITSGCQLQKKEIHLYQTFVVQLQDPREPRRQATQMLKLQNLVIPWAPENLTLHKLSESQLELNWNNRFLNHCLEHLVQYRTDWDHSWTEQSVDYRHKFSLPSVDGQKRYTFRVRSRFNPLCGSAQHWSEWSHPIHWGSNTSKENPFLFALEA
2 | 5.3e-05 | 0.00011 |  |  | cynomolgus IL-2Rβγ heterodimeric Fc fusion (knobs-into-holes), biotinylated (Fc fusion) chain 1: AVNGTSRFTCFYNSRANISCVWSQDGALQDTSCQVHAWPDRRRWNQTCELLPVSQASWACNLILGTPDSQKLTAVDIVTLRVMCREGVRWRMMAIQDFKPFENLRLMAPISLQVVHVETHRCNISWKISQASHYFERHLEFEARTLSPGHTWEEAPLMTLKQKQEWICLETLTPDTQYEFQVRVKPLQGEFTTWSPWSQPLAFRTKPAALGKDT chain 2: LNTTILTPNGNEDATTDFFLTSMPTDSLSVSTLPLPEVQCFVFNVEYMNCTWNSSSEPQPTNLTLHYWYKNSDNDKVQKCSHYLFSEEITSGCQLQKKEIHLYQTFVVQLQDPREPRRQATQMLKLQNLVIPWAPENLTLRKLSESQLELNWNNRFLNHCLEHLVQYRTDWDHSWTEQSVDYRHKFSLPSVDGQKRYTFRVRSRFNPLCGSAQHWSEWSHPIHWGSNSSKENPFLFALEA
3 |  |  | 5 | 15 | human IL-2Rα, monomeric, his-tagged (receptor) ELCDDDPPEIPHATFKAMAYKEGTMLNCECKRGFRRIKSGSLYMLCTGNSSHSSWDNQCQCTSSATRNTTKQVTPQPEEQKERKTTEMQSPMQPVDQASLPGHCREPPPWENEATERIYHFVVGQMVYYQCVQGYRALHRGPAESVCKMTHGKTRWTQPQLICTGEMETSQFPGEEKPQASPEGRPESETSCLVTTTDFQIQTEMAATMETSIFTTEYQVAVAGCVFLLISVLLLSGLTWQRRQRKSRRTI
4 |  |  | 30 | 110 | murine IL-2Rα, monomeric, his-tagged (receptor) ELCLYDPPEVPNATFKALSYKNGTILNCECKRGFRRLKELVYMRCLGNSWSSNCQCTSNSHDKSRKQVTAQLEHQKEQQTTTDMQKPTQSMHQENLTGHCREPPPWKHEDSKRIYHFVEGQSVHYECIPGYKALQRGPAISICKMKCGKTGWTQPQLTCVDEREHHRFLASEESQGSRNSSPESETSCPITTTDFPQPTETTAMTETFVLTMEYKVAVASCLFLLISILLLSGLTWQHRWRKSRRTI
5 | 9.3e-05 | 0.00065 |  |  | murine IL-2Rβγ heterodimeric Fc fusion (knobs-into-holes), biotinylated (Fc fusion) chain 1: AVKNCSHLECFYNSRANVSCMWSHEEALNVTTCHVHAKSNLRHWNKTCELTLVRQASWACNLILGSFPESQSLTSVDLLDINVVCWEEKGWRRVKTCDFHPFDNLRLVAPHSLQVLHIDTQRCNISWKVSQVSHYIEPYLEFEARRRLLGHSWEDASVLSLKQRQQWLFLEMLIPSTSYEVQVRVKAQRNNTGTWSPWSQPLTFRTRPADPMKE chain 2: WSSKVLMSSANEDIKADLILTSTAPEHLSAPTLPLPEVQCFVFNIEYMNCTWNSSSEPQATNLTLHYRYKVSDNNTFQECSHYLFSKEITSGCQIQKEDIQLYQTFVVQLQDPQKPQRRAVQKLNLQNLVIPRAPENLTLSNLSESQLELRWKSRHIKERCLQYLVQYRSNRDRSWTELIVNHEPRFSLPSVDELKRYTFRVRSRYNPICGSSQQWSKWSQPVHWGSHTVEENPSLFALEA
6 |  |  | 15 | 30 | cynomolgus IL-2Rα, monomeric, his-tagged (receptor) ELCDDDPPKITHATFKAVAYKEGTMLNCECKRGFRRIKSGSPYMLCTGNSSHSSWDNQCQCTSSAARNTTKQVTPQPEEQKERKTTEMQSQMQLADQVSLPGHCREPPPWENEATERIYHFVVGQTVYYQCVQGYRALHRGPAESVCKMTHGKTRWTQPQLICTGETEPSQFPGEEEPQASPDGLPESETSRLVTTTDFRIQTEVAATMETFIFTTEYQ
